NFAT-luciferase reporter activity in Hela cells data for one substance are collected here from patent US20100189695A1, “IRAK-1 AS REGULATOR OF DISEASES AND DISORDERS” (priority 2008, published 2010).

This test addresses NFAT (in Hela cells) (human). Nature of the test: cell-based or functional assay.

Turning to “Flag tagged full length wild type human IRAK-1 (pFlag-IRAK-1)”, the NFAT-luciferase reporter activity in Hela cells amounted to 80 % reduction.
